Assay [1] has as its target Human claudin 18.2 (CLDN18.2), wild-type (human). The experiment in a line: cell-based or functional assay.
Assay [2] has the same target. The experiment in a line: cell-based or functional assay. The source holds these as a separate data set.

B1: 64G11B4 chimeric antibody (antibody, V domains shown)
VH: QVQLHQSGTELVRPGTSVKVSCKASGYAFTNYLLEWVKQRPGQGLEWIGEINPGNGGSNYNEKFKGKATLTADKSSSTAYMQLSSLTSVDSAVYFCARIYYGNSFAYWGQGTLVTVSA
VL: DIVMTQSPSSLTVTAGEKVTMNCKSSQSLLNSGNQRNYLTWYQQKPGQPPKLLIYWASTRESGVPDRFTGSGSGTDFTLTISSVQADDLAVYYCQNDYFYPFTFGAGTNLELK
For B1, the “EC50 (pM), ADCC Reporter Bioassay (luciferase; Jurkat effector cells with FcγRIIIa V158 and NFAT response element)” value in assay [1] worked out at 126 pM.

B2: 78E8G9G6 chimeric antibody (antibody, V domains shown)
VH: QVQLKESGPGLVAPSQSLSITCTVSGFSLISYGVHWVRQPPGKGLEWLGVIWAGGRTNYNSALMSRLSISKDNSKSQVFLKMNSLQTYDTAMYYCARDRYGGNSLDYWGQGTSVTVSS
VL: DIVMTQSPSSLTVTAGEKVTMNCRSIQSLLNSGNQKNYLSWYQQKPGQPPKLLIYWASTRESGVPDRFTGSGSGTDFTLTIRSVLDEDLAVYYCQNSYSYPFTFGSGTKLEMK
As to B2, the “EC50 (pM), ADCC Reporter Bioassay (luciferase; Jurkat effector cells with FcγRIIIa V158 and NFAT response element)” value in assay [1] was 15.9 pM.

B3: 4F11E2 chimeric antibody (antibody, V domains shown)
VH: DVQLVESGGGLVQPGGSRKLSCAASGFTFSTFGMHWVRQAPEKGLEWVAYITSGNSPIYFTDTVKGRFTISRDNPKNTLFLQMTSLGSEDTAVYYCARSSYYGNSMDYWGQGTSVTVSS
VL: DIVMTQSPSSLTVTAGEKVTLTCRSSQSLLNSGNRKNYLTWYQQIPGQPPKLLIYWASTRESGVPDRFTGSGSGTYFTLTISSVQAEDLAVYYCQNAYSYPFTFGSGTKLEKK
B3: the “EC50 (pM), ADCC Reporter Bioassay (luciferase; Jurkat effector cells with FcγRIIIa V158 and NFAT response element)” value in assay [1] was found to be 22.2 pM.

B4: 103F6D3 chimeric antibody (antibody, V domains shown)
VH: QVQLQQSGAELARPGASVKMSCKASGYTFPTYSIHWLKQGPGQGLEWIGYINPNTIYTNYNQKFKYKTTLTADKSSSTAYIQLSSLTSDDSAVYYCAREGYGRGNAMDYWGQGTSVTVSS
VL: DIVMTQSPSSQTVTAGEKVTLSCRSSQSLLNGGNQKNYLTWYQQKPGQPPKLLIYWASTRESGVPDRFTGSGSGTYFTFTISSVQAEDLAVYYCQNAYFYPFTFGAGTKLELK
As for B4, the “EC50 (pM), ADCC Reporter Bioassay (luciferase; Jurkat effector cells with FcγRIIIa V158 and NFAT response element)” value in assay [1] came to 79.5 pM.

B5: 4F11E2 -HC N55Q-LC S32A (antibody, V domains shown)
VH: EVQLVESGGGLVQPGGSLRLSCAASGFTFSTFGMHWVRQAPGKGLEWVSYITSGQSPIYFTDTVKGRFTISRDNAKNSLYLQMNSLRAEDTAVYYCARSSYYGNSMDYWGQGTLVTVSS
VL: DIVMTQSPDSLAVSLGERATINCRSSQSLLNAGNRKNYLTWYQQKPGQPPKLLIYWASTRESGVPDRFSGSGSGTDFTLTISSLQAEDVAVYYCQNAYSYPFTFGGGTKLEIK
With B5, the “EC50 (pM), ADCC Reporter Bioassay (luciferase, Jurkat effector cells)” value (“EC50 (pM) … (luciferase, Jurkat effector cells)” for short) in assay [2] stood at 414 pM.

B6: 120B7B2 (HC G57D S104A/LC S32A G97A) (antibody, V domains shown)
VH: QVQLVQSGAEVKKPGASVKVSCKASGYTFTGYIIQWVRQAPGQRLEWMGFINPYNDDTKYNEQFKGRVTITRDTSASTAYMELSSLRSEDTAVYYCARAYFGNAFAYWGQGTLVTVSS
VL: DIVMTQSPDSLAVSLGERATINCKSSQSLLNAGNQKNYLTWYQQKPGQPPKLLIYWASTRESGVPDRFSGSGSGTDFTLTISSLQAEDVAVYYCQNAYYFPFTFGGGTKLEIK
Regarding B6, the “EC50 (pM) … (luciferase, Jurkat effector cells)” value in assay [2] was 114 pM.

B7: 4F11E2 -HC N55Q-LC N31E (antibody, V domains shown)
VH: EVQLVESGGGLVQPGGSLRLSCAASGFTFSTFGMHWVRQAPGKGLEWVSYITSGQSPIYFTDTVKGRFTISRDNAKNSLYLQMNSLRAEDTAVYYCARSSYYGNSMDYWGQGTLVTVSS
VL: DIVMTQSPDSLAVSLGERATINCRSSQSLLESGNRKNYLTWYQQKPGQPPKLLIYWASTRESGVPDRFSGSGSGTDFTLTISSLQAEDVAVYYCQNAYSYPFTFGGGTKLEIK
B7: in assay [2], the “EC50 (pM) … (luciferase, Jurkat effector cells)” value was determined as 238 pM.

B8: 72C1B6A3 (HC WT/LC S32A) (antibody, V domains shown)
VH: QVQLVQSGAEVKKPGASVKVSCKASGYTFTTYPIEWVRQAPGQRLEWMGNFHPYNDDTKYNEKFKGRVTITRDTSASTAYMELSSLRSEDTAVYYCARRAYGYPYAMDYWGQGTLVTVSS
VL: DIVMTQSPDSLAVSLGERATINCKSSQSLLNAGNQKNYLTWYQQKPGQPPKLLIYRASSRESGVPDRFSGSGSGTDFTLTISSLQAEDVAVYYCQNDYIYPYTFGGGTKLEIK
B8: the “EC50 (pM) … (luciferase, Jurkat effector cells)” value in assay [2] was 190 pM.

B9: 120B7B2-HC G57D&S104A-LC-N96E&N31E (antibody, V domains shown)
VH: QVQLVQSGAEVKKPGASVKVSCKASGYTFTGYIIQWVRQAPGQRLEWMGFINPYNDDTKYNEQFKGRVTITRDTSASTAYMELSSLRSEDTAVYYCARAYFGNAFAYWGQGTLVTVSS
VL: DIVMTQSPDSLAVSLGERATINCKSSQSLLESGNQKNYLTWYQQKPGQPPKLLIYWASTRESGVPDRFSGSGSGTDFTLTISSLQAEDVAVYYCQEGYYFPFTFGGGTKLEIK
As for B9, in assay [2], the “EC50 (pM) … (luciferase, Jurkat effector cells)” value came to 493 pM.

B10: 72C1B6A3-HC WT-LC N31E (antibody, V domains shown)
VH: QVQLVQSGAEVKKPGASVKVSCKASGYTFTTYPIEWVRQAPGQRLEWMGNFHPYNDDTKYNEKFKGRVTITRDTSASTAYMELSSLRSEDTAVYYCARRAYGYPYAMDYWGQGTLVTVSS
VL: DIVMTQSPDSLAVSLGERATINCKSSQSLLESGNQKNYLTWYQQKPGQPPKLLIYRASSRESGVPDRFSGSGSGTDFTLTISSLQAEDVAVYYCQNDYIYPYTFGGGTKLEIK
B10: in assay [2], the “EC50 (pM) … (luciferase, Jurkat effector cells)” value turned out to be 1650 pM.

B11: 4F11E2 (HC N55E/LC S32A) (antibody, V domains shown)
VH: EVQLVESGGGLVQPGGSLRLSCAASGFTFSTFGMHWVRQAPGKGLEWVSYITSGESPIYFTDTVKGRFTISRDNAKNSLYLQMNSLRAEDTAVYYCARSSYYGNSMDYWGQGTLVTVSS
VL: DIVMTQSPDSLAVSLGERATINCRSSQSLLNAGNRKNYLTWYQQKPGQPPKLLIYWASTRESGVPDRFSGSGSGTDFTLTISSLQAEDVAVYYCQNAYSYPFTFGGGTKLEIK
As to B11, the “EC50 (pM) … (luciferase, Jurkat effector cells)” value in assay [2] was 148 pM.

B12: 72C1B6A3 chimeric antibody (antibody, V domains shown)
VH: QVQLQQSGGELVKPGASVKMSCKAFGYTFTTYPIEWMKQNHGKSLEWIGNFHPYNDDTKYNEKFKGKAKLTVEKSSSTVYLEVSRLTSDDSAVYYCARRAYGYPYAMDYWGQGTSVTVSS
VL: DIVMTQSPSSLTVTAGEKVTMSCKSSQSLLNSGNQKNYLTWYQQRPGQPPKLLIYRASSRESGVPVRFTGSGSGTDFTLTISSVQAEDLAVYYCQNDYIYPYTFGGGTKLEMN
As for B12, the “EC50 (pM), ADCC Reporter Bioassay (luciferase; Jurkat effector cells with FcγRIIIa V158 and NFAT response element)” value in assay [1] was 46.3 pM.

B13: 12F1F4 chimeric antibody (antibody, V domains shown)
VH: QVQLKESGPGLVAPSQSLSITCTVSGFSLINYGVSWVRQPPGKGLEWLGVIWGDGNTNYQSALRSRLSIRKDTSKSQVFLKLNSVHTDGTATYYCAKVGRGNAMDHWGQGISVIVSS
VL: DIVMTQSPSSLTVTARERVSMTCKSSQSLFNSGNQRNYLTWYQQKPGQPPKLLIYWSSTRESGVPDRFTGSGSGTDFTLTISSVQAEDLAIYFCQNNYYYPFTFGSGTKLEIK
For the molecule B13, the “EC50 (pM), ADCC Reporter Bioassay (luciferase; Jurkat effector cells with FcγRIIIa V158 and NFAT response element)” value in assay [1] stood at 36.8 pM.

B14: 120B7B2 chimeric antibody (antibody, V domains shown)
VH: EVQLQQSGPELVKPGASVKMSCKASGYTFTGYIIQWMKQKPGLGLEWIGFINPYNDGTKYNEQFKGKATLTSDKSSNAAYMELSSLTSEDSAVYYCARAYFGNSFAYWGQGTLVTVSA
VL: DIVMTQSPSSLTVTAGEKVTMSCKSSQSLLNSGNQKNYLTWYQQRPGQPPKLLMYWASTRESGVPDRFTGSGSGTDFTLTISSGQAEDLAIYFCQNGYYFPFTFGSGTKLETK
On to B14, for which the “EC50 (pM), ADCC Reporter Bioassay (luciferase; Jurkat effector cells with FcγRIIIa V158 and NFAT response element)” value in assay [1] came to 5.81 pM.
